This note sets out measurements from article PMC3416812.

Assay [1] deals with tubulin polymers from porcine brain tubulin fixed with glutaraldehyde (MTs (GA) or zinc-sheets (GA)) (porcine (purified from porcine brain)) (UniProt P02550).
The target is the same in assay [2]. The source holds these as a separate data set.
Assay [3] deals with tubulin purified from porcine brain, polymerised without fixation (MTs, zinc-sheets or zinc-macrotubes) (porcine (purified from porcine brain)) (UniProt P02550).

As to “rat kinesin dimer (RK430) fused with GFP (domain or fragment)”, the observed walking length on zinc-sheets (GA) (TIRF) in assay [1] turned out to be 500 nm.

In assay [2], “recombinant yeast dynein dimer GFP-GST-Dyn1_(331kDa) (domain or fragment)” returned a velocity of single-molecule movement on MTs (GA) (TIRF, from MSD plots; pH 6.8, 25 mM potassium acetate, 1 mM ATP) of 35 nm/s and a velocity of single-molecule movement on zinc-sheets (GA) (TIRF, from MSD plots; pH 6.8, 25 mM potassium acetate, 1 mM ATP) of 35 nm/s. This substance came in with a velocity of single-molecule movement on MTs (TIRF, from MSD plots; pH 6.8, 25 mM potassium acetate, 1 mM ATP) in assay [3] of 36 nm/s. In assay [1], this substance gave an observed walking length on zinc-sheets (GA) (TIRF) of 500 nm.
